8 molecules from patent publication US20240247079A1 (NANJING ANJI BIOLOGICAL TECHNOLOGY, published 2024) can be followed below.

In test [1] the target is T1, HMMW micropeptide (recombinant, purified from Escherichia coli BL21) (human).
T1 construct: also called purified HMMW micropeptide; human HMMW micropeptide
T1 peptide: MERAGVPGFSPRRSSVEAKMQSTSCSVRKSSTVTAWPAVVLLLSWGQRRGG
As to the kind of experiment: indirect ELISA, HMMW micropeptide coated at 1 ug/ml, antibody dilution 1:12.5K. Here is the method: (§1) The antigen coating concentration of the HMMW micropeptide was 1 μg/ml and 5% milk PBS-T was used for sealing. The dilution multiples of eight antibodies were: 1: 3.125 K/6.25 K/12.5 K/25 K/5O K/100 K. The primary antibodies were incubated at 37° C. for 1 h and the secondary antibodies were incubated at 37° C. for 45 min. A color developing solution was added, reaction was performed at 37° C. for 15 min, the reaction was terminated, and the value was read. It can be seen from Table 2 below that the titers of the eight antibodies all reached 1: 100 K, meeting the requirements for subsequent antigen detection.
In general terms: ELISA stands for enzyme-linked immunosorbent assay.

In test [2] the target is T1, HMMW micropeptide (recombinant, …). As to the kind of experiment: indirect ELISA, HMMW micropeptide coated at 1 ug/ml, antibody dilution 1:100K. Here is the method:
as §1

Test [3] has the same target. The experiment in a line: indirect ELISA, HMMW micropeptide coated at 1 ug/ml, antibody dilution 1:50K. Here is the method: as §1
Test [4] shares this target. As to the kind of experiment: indirect ELISA, HMMW micropeptide coated at 1 ug/ml. Here is the method:
as §1

Test [5] shares this target. The experiment in a line: indirect ELISA, HMMW micropeptide coated at 1 ug/ml, antibody dilution 1:6.25K. Here is the method: as §1
For test [6] the target is unchanged. The experiment in a line: indirect ELISA, HMMW micropeptide coated at 1 ug/ml, antibody dilution 1:3.125K. Here is the method:
as §1

Test [7] shares this target. As to the kind of experiment: indirect ELISA, HMMW micropeptide coated at 1 ug/ml, antibody dilution 1:25K. Here is the method:
as §1

Where only a bound is given, the exact number is not on record here.

B1: Anti-HMMW antibody-3 (antibody, V domains shown)
VH: EVKLEESGGGLVQPGGSMKLSCVASGFTFSDYWMNWVRQSPEKGLEWLTEIRLKSDNYATHYAESVKGKFTISRDDSKSTVYLQMNNLRAEDTGIYYCSVETMDFWGQGTSVTVSS
VL: QAVVTQESALTTSPGETVTLTCRSSIGAVTTNNYANWVQEKPDRLFTGLIRGTNNRVPGVPARFSGSLIGDKAALTITGAQTEDEAIYFCALWYSNHWVFGGGTKLTVL
notes: Mouse monoclonal antibody from a BALB/c x SP2/0 hybridoma; also called anti-HMMW-3 antibody
In the case of B1, the “ELISA reading at antibody dilution 1:12.5K” value in test [1] came out at 3.22. The “ELISA reading at antibody dilution 1:100K” value in test [2] stood at 2.54. In addition, in test [3], the “ELISA reading at antibody dilution 1:50K” value amounted to 2.92. In test [4], the titer was ≥ 100000 dilution (1:x). For the same molecule, the “ELISA reading at antibody dilution 1:6.25K” value in test [5] is 3.4. Further, the “ELISA reading at antibody dilution 1:3.125K” value in test [6] worked out at 3.57. Further, in test [7], the “ELISA reading at antibody dilution 1:25K” value stood at 3.04.

B2: Anti-HMMW antibody-4 (antibody, V domains shown)
VH: EVKLEESGGGLVQPGGSMKLSCVASGFTFSDYWMNWVRQSPEKGLEWLTEIRLKSNNYLTHYAESVKGRFTISRDDSKSSVYLQMNNLRAEDTGIYYCSVETMDYWGQGISVTVSS
VL: QAVVTQESALTTSSGETVTLTCRSSTGAVTTSNYANWVQEKPDHLFTGLIRGTNNRAPGVPARFSGSLIGDKAALTITGAQTEDEAIYFCALWYSNHWVFGGGTKLTVL
notes: Mouse monoclonal antibody from a BALB/c x SP2/0 hybridoma; also called anti-HMMW-4 antibody
As to B2, the “ELISA reading at antibody dilution 1:12.5K” value in test [1] amounted to 3.35. Also, in test [2], the “ELISA reading at antibody dilution 1:100K” value is 2.57. In addition, the “ELISA reading at antibody dilution 1:50K” value in test [3] is 2.81. Moreover, the titer in test [4] was ≥ 100000 dilution (1:x). In test [5], the “ELISA reading at antibody dilution 1:6.25K” value turned out to be 3.45. In addition, in test [6], the “ELISA reading at antibody dilution 1:3.125K” value turned out to be 3.52. In addition, the “ELISA reading at antibody dilution 1:25K” value in test [7] was found to be 3.13.

B3: Anti-HMMW antibody-2 (antibody, V domains shown)
VH: EVKLEESGGGLVQPGGSMKVSCVGSGFTFSNYWMNWVRQSPEKGLEWVAEIRLKSNNYATHYAESVKGRFTISRDDSKRSVYLQMNNLRVEDTGIYYCTTEAVDYWGQGTSVTVSS
VL: DIVMTQAAFSNPVTLGTSASISCRSSKSLLHSNGITYLYWYLQKPGQSPQLLIYQMSNLASGVPDRFSSSGSGTDFTLRISRVEAEDVGVYYCAQNLELPTFGGGTKLEIKR
notes: Mouse monoclonal antibody from a BALB/c x SP2/0 hybridoma; also called anti-HMMW-2 antibody
For the molecule B3, the “ELISA reading at antibody dilution 1:12.5K” value in test [1] amounted to 3.23. In test [2], the “ELISA reading at antibody dilution 1:100K” value is 2.73. Also, in test [3], the “ELISA reading at antibody dilution 1:50K” value came out at 2.94. Also, the titer in test [4] is ≥ 100000 dilution (1:x). Moreover, in test [5], the “ELISA reading at antibody dilution 1:6.25K” value was found to be 3.35. For the same molecule, the “ELISA reading at antibody dilution 1:3.125K” value in test [6] was 3.33. Further, the “ELISA reading at antibody dilution 1:25K” value in test [7] amounted to 3.19.

B4: Anti-HMMW antibody-6 (antibody, V domains shown)
VH: EVKLEESGGGLVQPGGSMKLSCVASGFTFSNYWMNWVRQSPEKGLEWVAEIRLKSNNYATHYAESVTGRFTISRDDSKSSVYLQMNNLRAEDTGIYYCTLEAVDYWGQGTSVTVSS
VL: DIVMTQAAFSNPVTLGTSASISCRSSKSLLHSDGITYLYWFLQKPGQSPQLLIYQMSNLASGVPDRFSSSGSGTDFTLRISRVEAEDVGVYYCAQNLELPTFGGGTKLEIK
notes: Mouse monoclonal antibody from a BALB/c x SP2/0 hybridoma; also called anti-HMMW-6 antibody
Regarding B4, the “ELISA reading at antibody dilution 1:12.5K” value in test [1] came to 2.96. The “ELISA reading at antibody dilution 1:100K” value in test [2] came out at 2.16. In addition, the “ELISA reading at antibody dilution 1:50K” value in test [3] was determined as 2.2. Besides, the titer in test [4] is ≥ 100000 dilution (1:x). In addition, the “ELISA reading at antibody dilution 1:6.25K” value in test [5] is 3.19. Moreover, in test [6], the “ELISA reading at antibody dilution 1:3.125K” value amounted to 3.37. Besides, in test [7], the “ELISA reading at antibody dilution 1:25K” value was 2.55.

B5: Anti-HMMW antibody-1 (antibody, V domains shown)
VH: EVKLEESGGGLVQPGGSMKFSCVASGFTFSNYWMNWVRQSPERGLEWVAEIKLKSNNYATLYAESVKGRFTISRDDSKSSVYLQVNNLRAEDTGIYYCITEIFDYWGQGTTLTVSS
VL: QAVVTQESALTTSPGETVTLTCRSSTGAVTTSNYATWVQEKPDHLFTGLIVGANNRAPGVPARFSGSLIGDKAALTITGAQTEDEAIYFCALWFLNHWVFGGGTKLTVLG
notes: Mouse monoclonal antibody from a BALB/c x SP2/0 hybridoma; also called anti-HMMW-1 antibody
As for B5, the “ELISA reading at antibody dilution 1:12.5K” value in test [1] turned out to be 2.38. For the same molecule, the “ELISA reading at antibody dilution 1:100K” value in test [2] turned out to be 1.14. Further, the “ELISA reading at antibody dilution 1:50K” value in test [3] is 1.85. The titer in test [4] is ≥ 100000 dilution (1:x). Also, the “ELISA reading at antibody dilution 1:6.25K” value in test [5] turned out to be 2.59. Besides, the “ELISA reading at antibody dilution 1:3.125K” value in test [6] is 2.85. In test [7], the “ELISA reading at antibody dilution 1:25K” value is 2.13.

B6: Anti-HMMW antibody-7 (antibody, V domains shown)
VH: EVKLEESGGGLVQPGGSKKLSCFASGFTFSNYWMNWVRQSPEKGLEWVAEIQLKSNNYATHYAESVKGRFTISRDDSKSSVYLQMNNLRAEDTGIYYCTTEIFDFWGQGTTLTVSS
VL: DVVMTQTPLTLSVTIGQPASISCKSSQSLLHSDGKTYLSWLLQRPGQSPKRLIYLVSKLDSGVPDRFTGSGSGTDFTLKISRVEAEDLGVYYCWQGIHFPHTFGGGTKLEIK
notes: Mouse monoclonal antibody from a BALB/c x SP2/0 hybridoma; also called anti-HMMW-7 antibody
B6: the “ELISA reading at antibody dilution 1:12.5K” value in test [1] was found to be 2.27. Besides, the “ELISA reading at antibody dilution 1:100K” value in test [2] stood at 1.7. Besides, the “ELISA reading at antibody dilution 1:50K” value in test [3] stood at 2.14. Besides, in test [4], the titer was ≥ 100000 dilution (1:x). Besides, in test [5], the “ELISA reading at antibody dilution 1:6.25K” value came out at 2.26. Also, in test [6], the “ELISA reading at antibody dilution 1:3.125K” value amounted to 2.4. In addition, in test [7], the “ELISA reading at antibody dilution 1:25K” value worked out at 2.15.

B7: Anti-HMMW antibody-5 (antibody, V domains shown)
VH: EVKLEESGGGLVQPGGSMKLSCVVSGFTFSNYWMNWVRQSPERGLEWVAEIKLKSNNYATLYAASVKGRFTISRDDSKSSVYLQVNNLRTEDTGIYYCITEIFDYWGQGTTLTVSS
VL: QTVVTQESALTTSPGETVTLTCRSSTGSVTTSNYATWVQEKPDHLFTGLIVGANNRAPGVPARFSGSLIGDKAALTITGAQTEDEAIYFCALWFIDHWVFGGGTKLTVL
notes: Mouse monoclonal antibody from a BALB/c x SP2/0 hybridoma; also called anti-HMMW-5 antibody
Consider B7, for which the “ELISA reading at antibody dilution 1:12.5K” value in test [1] came out at 2.56. Besides, the “ELISA reading at antibody dilution 1:100K” value in test [2] was 2. In addition, in test [3], the “ELISA reading at antibody dilution 1:50K” value came out at 2.31. Further, the titer in test [4] was ≥ 100000 dilution (1:x). Also, the “ELISA reading at antibody dilution 1:6.25K” value in test [5] amounted to 2.81. The “ELISA reading at antibody dilution 1:3.125K” value in test [6] turned out to be 2.92. Besides, the “ELISA reading at antibody dilution 1:25K” value in test [7] worked out at 2.48.

B8: Anti-HMMW antibody-8 (antibody, V domains shown)
VH: EVKLEESGGGLVQPGGSMKVSCVASGFTFSNYWMNWVRQSPEKGLEWVAEIKLKSDIDATNYAESVKGRFTISRDDSKSSVSLQMNNLRAEDTGIYYCSTEIFDYWGQGTTLTVSS
VL: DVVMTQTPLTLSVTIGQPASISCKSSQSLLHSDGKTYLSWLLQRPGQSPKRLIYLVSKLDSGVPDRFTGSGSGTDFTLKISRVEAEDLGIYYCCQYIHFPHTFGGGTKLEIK
notes: Mouse monoclonal antibody from a BALB/c x SP2/0 hybridoma; also called anti-HMMW-8 antibody
Turning to B8, the “ELISA reading at antibody dilution 1:12.5K” value in test [1] turned out to be 3.11. Also, the “ELISA reading at antibody dilution 1:100K” value in test [2] turned out to be 2.79. Moreover, the “ELISA reading at antibody dilution 1:50K” value in test [3] was 2.96. The titer in test [4] is ≥ 100000 dilution (1:x). Besides, the “ELISA reading at antibody dilution 1:6.25K” value in test [5] worked out at 3.16. Moreover, in test [6], the “ELISA reading at antibody dilution 1:3.125K” value amounted to 3.45. Also, the “ELISA reading at antibody dilution 1:25K” value in test [7] is 2.97.
